How the values were obtained:
[1] = target: chloroplastic ribosomal protein L10 from S. oleracea (S. oleracea (spinach)); test: native MS; chloroplastic 70S ribosomes introduced into a QE-UHMR mass spectrometer; intact stalk complexes released by in-source trapping activation and their mass measured; quadrupole isolation and HCD fragmentation ejected a single L12 (pseudo-MS3)
[2] = target: the molecule itself; test: as above

stoichiometry N [1]: 6 L12 per L10
B1: chloroplastic ribosomal protein L12 from S. oleracea (natural protein, S. oleracea (spinach), UniProt P02398 57-189, looked up)
chain: AVEAPEKIEQLGTQLSGLTLEEARVLVDWLQDKLGVSAASFAPAAAVAAPGAPADAAPAVEEKTEFDVSIDEVPSNARISVIKAVRALTSLGLKEAKELIEGLPKKLKEGVSKDDAEDAKKQLEDAGAKVSIV
notes: 50S ribosomal protein L12, chloroplastic, Spinacia oleracea; Six copies in each stalk complex; also called L7/L12; source: endogenous, in chloroplastic 70S ribosomes purified from spinach leaves (sucrose cushion, sucrose gradient)
binding result [2]: binds
